Laboratory results: a protein production outcome set (Wang et al. 2014)

Experiment: label from the status in PepcDB records
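Further: failed if final PepcDB status was selected cloned or expressed and not failed if soluble or beyond.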

| Sequence | protein production |
| --- | --- |
| MEIEYIKDYRDINQEDDTVLILGYFDGLHRGHKALFDKAREVANKEGLKVVVFTFTESPKLAFSRFSPELLLHITYPKKRYEKFADYGVNKLYLVDFTSKFSKVSSDHFITHYIKNLKAKHIVVGFDYKFGHNRTDSDYLTRNFEGQVYTIEEIKEDHRKISATWIRKLIQEGNVVKANHLLGYDLSTRGRVVHGDARGRTIGFPTANLAPIDNTYLPADGVYVTNVIVANKIYRSMTSLGKNVTFGGKELRLEVNIFDFDEEIYGEIIEIVWLDKIRDMEKFEGIEDLTDRLEYDKRTALNWKKDSKLS | failed |
| MAVNQDTLYVKGDRNVEVTKREVTLGDLVSMECSNRVILPHLKTMKVLKIPENGEKRYVISILKIIACIHEKYPGLEVQNLGETDLIVTYEMQKTPSK | not failed |
| PRSRTKISLEALGILQSFIHDVGLYPDQEAIHTLSAQLDLPKHTIIKFFQNQRYHVKH | not failed |
| MVQLIKKYEDLLCLLDELIKNESTFRWDEFYLERERDVPFFVLAPDEQLVEYVCTGLIESGKVLELGCGPGRNAIYLAENHFEVDVVDLSQKAIDWAMDRANERKASIRFIRENIFNLNVNKASYDLVYDSGCFHHIPPHRRMDYIHLVTTALKPGGHFGLTCFIENGPLGGAAISDLDVYRQQSLQGGLGFTEQKLIQIFDDFAVIEIRKMKEYPNDSSRFGVNGLLTALFQKKKVEKVKLEHHHHHH | failed |
| WRGIRQRKLHAEELLRLAMAHLRNQGKPVRIVDIAAGHGRYILESLRGVEPLPESILLRDYSDINVRDGSLLIEQKDLEDIARFVKGDAFDRNDLATLDPKPTLAVVSGLYELFSSNQMVGDSLAGLAAAVEPGGYLVYTGQPWHPQLELIARALTSHREGQAWVMRRRSQSEMDQLVEAAGFRKITQRVDEW | failed |
| MQIFVNGETIETEVITLNLLLEELGYEGNWLATAVNAEVVPIDARSRCVLHEGDKIEILSPMQGG | failed |
| MKVSVIIPTYNERENLEELFSRIDNALQGLNYEIVVVDDDSPDRTWEKAQELSSKYPVKVIRRTKEKGLSSAVIRGFKEASGDVFVVMDADLQHPPEVIPKLIEAIKNGSDIAIGSRYVKGGKVENWPFYRKLISKGAIMVGRIALPKIRDIKDPVSGFFALRKEVVEGVELNPIGFKILMEILIKGKYSKVVEVPFTFGIRARGESKLKGKTIFEYLRHIYRLMKWEGEIDRIVKFSIVGLSGILVNEGFLWLFVNLGIPKEIAVIPAVELSILNNFFWNDIWTFKDIRRGSIFSRLLKFHIAALSGAVVNFIVYWILLFLGIHYLIANLVGIVLSFGVRYVINRHVTWAT | failed |
| MPILTISGSPSAPSRSARLLGHVRAQLERAGESADHLDLRALPADALLGAQTAHPAIAEALARVAAAGVVILATPVYQAAYSGLLKTFLDLLPQSGLRDKVVLPIATGGSLAHTLAIDYALRPVLSSLAARVILPGIFAADAQIGAADDGFAVDPALQQRLDDGIERVHQAIALARHPAVAQVIVASRRTVRSAFQAHANAQATDAQQRMRCPA | failed |
| MFVQSALHQLKVAVDTSIQMLDQYTEIDLKIAPIQSKRSLFEMYAHLSLICHADLLILNGSTEKELHTFYKEQTPETIAQMQKTMIQGYDLLSKTFLSYSNEQLAEMKTAYWGISYSRFEWLLEIVAHFYHHRGQIHILLCEHMKDPNIPLFQ | not failed |
| MENLLARLLFAQWFPGLIQLKNYQKEWLVNDFRAAFSVVAVALPVAIAYAQLTGVSAIVGLYSCVLPMLVYALMGTSRQLIVGPDAATCAVIAAVVTPIAAGDPTKHWQLVMTMTAMTGIWCVLASRFKLGIFADFLSRPILLGLLNGVALTIIVGQFAKVVGLKYEQRYLLERLWEAPQRLAELHWPTVALSVATVVVYLVTKRYRPTWPAAMLAILVTTASVWLLHLQEMDVAVVGLTQGGFPQFQAPQFELGEVRELVVPALNLAIVSFVSMMLTARSFAAKNGYDIDANKEFQALGFANIASAFSQGFAISGADSRTAVNDANGGKSQLVSIVAAITIAIIAVFIYEPLQFIPIASLGVVLIIASLSLLDLKAIWILKTRDKDAFYLAIITFISVLVIGVIPGITLAVLLGLFQFLRIVMRPSDQLLGLDEKGTIRTIDETGKASPIPGMVIYRFNSPLTYFNAPYFKRRLLEHAEQNKDVSCVVVDAVSSFTHLDLSVMATLADIHEVLKKRGIRLVLAGRKRRLRQWCELTGISTSEGGILLRADMYLAIKLSGSYLSAVGEGIVPTVQKEPDLEQPPKPIPEVA | failed |
| MLRKNILAYYGANFLLIIAQSLPHAILTPLLLSKGLSLSEILLVQTFFSFCVLVAEYPSGVLADLMSRKNLFLVSNAFLIASFSFVLFFDSFIFMLLAWGLYGLYSACSSGTIEASLITDIKENKKDLSKFLAKNNQITYLGMIIGSSLGSFLYLKVHAMLYIVGIFLIMLCVLTIIFYFKEKEGDFKSQKSLKLLKEQVKGSLKELKDNPKLKILLVGHLITPVFFMSHFQMWQAYFLKQGVKEQYLFVFYIAFQVISILIHFLKASSYSQKIALSSLVVLLGVSPLLLSNIPYCFIGVYALMVAFFTYMSYCLNYQFSKFVSKNNISSLSSLLSSCVRVVSVLILSLSSLELRYFSPLTIITMHFALTLIILFFFLYKAKPFDE | failed |
| MKSASGQEKSIVVRRFDPARFVALVRKESLQAMRDPSTLLIALVLPLILLFLFAYAVSLDVRHVRIGVVLESPGATARTLADAFSGTHYLDVTFAYDRREVAGKLIAGELRGYVVIPQNFERHFADTGSPLVQIITDGSQPNTANFVANYAQGVVQTWMASLTETMPMPAVQLEPRYWFNPELASRRALVPGAIAIIMTIIGTLLTALVVAREWERGTMEAILSTPASVLEILVGKLLPYFVLGMLSTLIAAALAVFLFNVPLRGSLFALLVLSAVFMMPALGQGLLISSLARNQFLASQLALFSGYLPAFMLSGFLFEIDAMPALIRAITWLIPARYFVSSLKTIFLAGDVWSVFLPDLLGMATIGLIFFLIAQRYTRKSLE | failed |
| MDAADCYLEGNADAVEFCPHESYANLLAASTYTLQEGDCPSRSGSVYLFDVGDVEDVGLNLIQKIDTAGVFDIRWSRGGDGGDVALAQADADGCLIVYKIDETESKGTLREVSGKRISSSMCLCLDWDPSSTSIVVGLSDGSASVVSFTDSNLETVQEWKGHDFELWTASFDLNNPNLVYTGSDDCKFSCWDIRDSPADNRVFQNSKVHTMGVCCISSNPSDPYSIFTGSYDETLRVWDTRSVSRPLNETSVSLGGGVWRIKHHPSLSGVVLAACMHNGFALAKVSDGKGEVLESYNKHHSLAYGADWYRGKDQKQSVVATCSFYDRLLRVWMPITDFSTRCS | failed |
| MSPMRIGLVCIRGSVPAFENFGFLPTDIVGSNGLVNGSRAHRVLDGIIIPGGSIVESGSLSPELAFEIRRMASDGKFVLGICSGFQALAERTDIGRKSPCPVYREGLGLLNVTFHPMISNDRVEATITGESFLTSGMSGERITGFHCHTYGEIRGDAPEIMKSRIVRADYHERPGEILSGVCSDDGNVAGTMVHGCLDENQTLVSNILKFLDADETARERILEANRKLREALRSELGISTGIRVMDRGGTRGTPPAIMIASTGSDSGKTFILTGLAGALRRRGLRVGVIKVGPDVRDIVPALYLIKEPMEEHSSIRIGRLGWMELRDVLESVRGRYDIILIEGVMSILTGLLNDITPYSGAEIALAAGIPLIMVAGCSKGGIESAVVDLDAHISVLEGLGLEVSCGILNRVYDMDIFERASGGRYLAIPRVEMSERGGTPEVEIKLEDFCLKAMETVEEHLDVDTLISFAKKPEFRGYMGPEEIKKVFSPLEHHHHHH | failed |
| MKKRKLLAVTLLSTILLNSAVPLVVADTSLRNNTSSTDQPTTADTATDAESETAKKDKKSKETASQHDTQKDHKPSHTHPTPPSNDTKQTDQASSEATDKPNKDKNDTKQPDSSDQSTSSPKDQSSQKESQNKDGRPTPSPDQQKDPTPDKTPEKSADKIPEKATEKTPEPNRDAPKPIQPPLAAAAPVFIPWRESDKDLSKLKPSSRSSAAYVRHWTGDSAYTHNLLSRRYGITAEQLDGFLNSLGIHYDKERLNGKRLLEWEKLTGLDVRAIVAIAMAESSLGTQGVAKEKGANMFGYGAFDFNPNNAKKYSDEVAIRHMVEDTIIANKNQTFERQDLKAKKWSLGQLDTLIDGGVYFTDTSGSGQRRADIMTKLDQWIDDHGSTPEIPEHLKITSGTQFSEVPVGYKRSQPQNVLTYKSETYSFGQCTWYAYNRVKELGYQVDRYMGNGGDWQRKPGFVTTHKPKVGYVVSFAPGQAGADATYGHVAVVEQIKEDGSILISESNVMGLGTISYRTFTAEQASLLTYVVGDKLPRP | failed |
| MIALPAWLTDERLSEDIEPLLRQTDNESLERLAAEAQAVTLRRFGRVISLYTPLYLSNFCSSGCVYCGFASDRRSPRRKLDTDEIEKELLAMKALGVSDVLLLTGERTNSVGFDYLRRAVDIAARHMPRVAVEAFPMSVAEYRGLAECGCTGLTIYQETYDPDHYRELHRWGPKQDFLERLETPERAITGGIRSVGIGALLGLSEPVGEALAVLRHARYLCKTYWKAGVTVSFPRIRPQEGGFQPSFTVSDRFLARMIFAFRIGMPDVDLVLSTRESSNFRDGMAGLGITRMSIASRTTVGGYVEKETAGASQFEVSDNRSVEAFCAALRAKDLEPVFKNWDAAYNNPLPAEECT | failed |
| MRSGFRRCCPAIQRFKKVQRILLIVLFLNLAVAFAKIIYGTLTSTLSMTADGYHSLFDGVSNIVGLVGSFIAARPPDKEHPYGHQKYETIASIFIALLLLYVGVEIFRHALDRFLIRSVPEVTAISFLVIIGTMCINYLVTRYEYRQGLALRSQVLIADSLHTKSDIYVSLSVILSLAAVKLGFPLLDPLIAVLISFLIFRAGFRIMKESSKVLLDMSRLEEDEICNLVLGVEGVLGCHKIRTRGGMGDIRIDMHVLVQADLTLEEAHLISHRVSKMLKAEYNDVTDVVVHLEPALPQGSYSKKTT | failed |
| MLGGQYYLIAFILAVIVVWFTTPLINHWGRRAGYVDQPSARKMHHRPMVRLGGVSIFLGSLVALLVVWNLGAFGAMSTKGEWEVWGVVLGGLAFFGIGLFDDLFDLSPFSRLLAQVAIASVVWNMGVRIDFFTLPFLGNLVYLNILSLPITVIWLVGLANAINWIDGLDGLAAGVCGIAAVVLFVLCLFMEQSEAALIAAALAGGALGFLRYNFNPAQIFMGDGGAYFMGFTLGAVAVIGLVKVAAMATVAVTAVLLPYLVLAVPILDMSVVILSRVIKGKSPFKADKGHLHHRLINAGISHRLTVLFIYALTLWAGSLALGFSNIPSGWGFAIGATVLLIYLGWQVWRNSRNVGEQD | failed |
| MNSFYSQEELKKIGFLSVGKNVLISKKASIYNPGVISVGNNVRIDDFCILSGKVTIGSYSHIAAYTALYGGEVGIEMYDFANISSRTIVYAAIDDFSGNALMGPTIPNQYKNVKTGKVILKKHVIIGAHSIIFPNVVIGEGVAVGAMSMVKESLDDWYIYVGVPVRKIKALEHHHHHH | not failed |
| MINMTRKLYYEDAYLKEAKGRVLEIRDNAILLDQTIFYPTGGGQPHDRGTINGVEVLDVYKDEEGNVWHVVKEPEKFKVGDEVELKIDWDYRYKLMRIHTGLHLLEHVLNEVLGEGNWQLVGSGMSVEKGRYDIAYPENLNKYKEQIISLFNKYVDEGGEVKIWWEGDRRYTQIRDFEVIPCGGTHVKDIKEIGHIKKLKRSSIGRGKQRLEMWLE | not failed |
| MDYNQTVLSHLQKFWKHHDIKGFTWTLGRIVEELPDFQVFQVIPNHEDEPWVYVSSGIGQFLGQEFFIISPFETPEHIETLAMLASASMHYPDQFQLGKTVNIGRPWVEQSSFRHFLISLPYPYGQELEYMDNVRFFWLLPITQTERLFLNTHSVEELETKFDEAGIDYLDINRASTVWQAG | not failed |
| MNNKTNWVIIGRFGRPHGIKGFVTVHSFTDPADNILRYNDWHVFLNKQWQPLKLLTIEVRSKAIIAQIEGYPKRELVSALTNLDIGVQESQLAALAPGEYYWYQLIGMSVINSKGDLFGKVVEIMPTGSNDVLVVEGEKRHLIPYLPGQFVINVDESQQVITVDWDMNF | failed |
